These results are taken from PMC6853979, “Structures of GapR reveal a central channel which could accommodate B-DNA”.

For series [1], the target named is GapRΔ1-11 (Caulobacter crescentus). Nature of the series: crystal structure; GapR or GapRΔ1-11 crystallised with 19-bp dsDNA (DNA not seen in the maps), sitting drop, room temperature, ammonium sulfate and PEG 3350; tetramer formed by crystallographic symmetry.
The target in series [2] is GapR (full length, Caulobacter crescentus) (Caulobacter crescentus). The series can be described thus: SEC-MALS; 50 μl of GapR at 0.5 mM (calculated as tetramer), no DNA, Superdex-200 Increase 10 300 GL, SEC buffer (20 mM HEPES pH 7.4, 200 mM NaCl, 0.2 mM TCEP).
For series [3] the target is unchanged. Nature of the series: crystal structure; GapR or GapRΔ1-11 crystallised with 19-bp dsDNA (DNA not seen in the maps), sitting drop, room temperature, ammonium sulfate and PEG 3350; tetramer formed by crystallographic symmetry.
The target is the same in series [4]. The series can be described thus: SEC; 6.25 μM protein (calculated as tetramer); GapR without and with 20 μM 19 bp DNA on Superdex 200 Increase 10 300 GL; GapR and GapR6KtoE on HiLoad 16/600 Superdex 200 pg against protein standards.
Another series addresses T1, GapR (Caulobacter crescentus, UniProt Q9A385 1-89).
T1 sequence: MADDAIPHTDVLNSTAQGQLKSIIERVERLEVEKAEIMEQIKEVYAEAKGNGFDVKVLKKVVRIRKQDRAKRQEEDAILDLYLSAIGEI
The series can be described thus: EMSA; 0.425 uM tetramer, 1.7 uM DNA; EMSA: 10 mM Tris pH 7.5, 50 mM NaCl, 1 mM EDTA; 8% gel in 0.5x TBE pH 8.3 at 4 C. Conditions: protein: recombinant; tags: N-terminal His8 cleaved by TEV (vector residues may remain); chain copies: 4; blunt. Background: In EMSA bound probe runs differently from free probe, usually more slowly.

By stoichiometry N is commonly meant a count of units in the complex or per binding partner. For GapRΔ1-11 (domain or fragment), in series [1], the stoichiometry N came out at 4.

As to “GapR (full length, Caulobacter crescentus) (natural protein)”, the stoichiometry N in series [2], in series [3] and in series [4] was 4 in each case.

B1: 19 bp oligonucleotide (19mer) (dsDNA)
DNA 1: GTTAAGCAACCGTTAACGG
DNA 2: CCGTTAACGGTTGCTTAAC
For the molecule B1, the binding result with GapR is “binds”.
